B1: anti-CD20 IgG1 defucosylated antibody GA101/IgG1 DF (antibody, V domains shown)
VH: QVQLVQSGAEVKKPGSSVKVSCKASGYAFSYSWMNWVRQAPGQGLEWMGRIFPGDGDTDYNGKFKGRVTITADKSTSTAYMELSSLRSEDTAVYYCARNVFDGYWLVYWGQGTLVTVSS
VL: DIVMTQTPLSLPVTPGEPASISCRSSKSLLHSNGITYLYWYLQKPGQSPQLLIYQMSNLVSGVPDRFSGSGSGTDFTLKISRVEAEDVGVYYCAQNLELPYTFGGGTKVEIK
B2: anti-CD20 IgG1 type defucosylated monovalent antibody GA101/mvG1-2 DF (antibody, V domains shown)
VH: B1 VH
VL: DIVMTQTPLSLPVTPGEPASISCRSSKSLLHSNGITYLYWYLQKPGQSPQLLIYQMSNLVSGVPDRFSGSGSGTDFTLKISRVEAEDVGVYYCAQNLELPYTFGGGTKVEIKR
notes: Same chains as GA101/mvG1-2 F, made in CHO/FUT8KO (no core fucose)
B3: anti-CD20 IgG1 type monovalent antibody GA101/mvG1-2 F (antibody, V domains shown)
VH: B1 VH
VL: B2 VL
notes: Heterodimer of VH-CH and VL-CL-Fc

Target: T1, CD20 on CD20-positive human lymphoma cell lines Raji and ST-486 (human, UniProt P11836 1-297)
T1 construct: whole, on cells
T1 sequence (looked up): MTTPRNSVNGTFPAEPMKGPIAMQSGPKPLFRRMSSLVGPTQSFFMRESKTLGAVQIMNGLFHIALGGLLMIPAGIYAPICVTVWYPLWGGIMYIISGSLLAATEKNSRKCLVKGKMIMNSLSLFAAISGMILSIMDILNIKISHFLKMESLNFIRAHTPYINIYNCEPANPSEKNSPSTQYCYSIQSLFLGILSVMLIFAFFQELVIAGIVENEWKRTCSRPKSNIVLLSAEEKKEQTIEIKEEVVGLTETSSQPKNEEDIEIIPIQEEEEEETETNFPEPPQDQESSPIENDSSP
Assay: flow cytometry competition on Raji cells, competitor GA101_Alx
Excerpt: CD20-positive human lymphoma cell line Raji (JCRB9012) and HER2-positive human breast cancer cell line SK-BR-3 (ATCC: HTB-30) were used to perform flow cytometry.
Further, hIgG1_Alx was used as a negative control. After washing with FACS buffer, a flow cytometer Cytomics FC 500 MPL (Beckman Coulter) was used for measurement.

Binder	binding result
B1	binds
B2	binds
B3	binds
